For the assay, the target named is glycosylated full-length human insulin receptor isoform A (human) (UniProt P06213). Nature of the assay: negative-stain electron microscopy.

This is an account of results in publication doi:10.1101/207928.

On to “glycosylated full-length human insulin receptor isoform A (from UniProt P06213-2 28-1370)”, for which the stoichiometry N stood at 2.
